# Experimental data published in US20160068605A1 (Janssen / Centocor, published 2016).
# Numbering of substitutions follows the chain as printed. Numbers in names are those of the source.
# T1: human CD123 SP1 ECD displayed on pDisplay-transfected cells (human, UniProt P26951 20-305)
# T1 construct: ECD anchored on the surface of stably transfected HEK293 cells by the PDGFR transmembrane domain; also called hCD123 SP1 cells; hCD123 cells
# T1 sequence: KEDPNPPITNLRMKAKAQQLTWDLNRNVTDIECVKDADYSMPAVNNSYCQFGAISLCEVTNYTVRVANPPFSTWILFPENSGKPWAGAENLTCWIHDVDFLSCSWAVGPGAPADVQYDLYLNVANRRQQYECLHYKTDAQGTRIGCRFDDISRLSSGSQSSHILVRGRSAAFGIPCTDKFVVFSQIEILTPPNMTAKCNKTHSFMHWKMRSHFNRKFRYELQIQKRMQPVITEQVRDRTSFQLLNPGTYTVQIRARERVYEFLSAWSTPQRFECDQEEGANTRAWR
# T2: human CD123 SP2 ECD displayed on pDisplay-transfected cells (human, UniProt P26951 101-305)
# T2 construct: ECD anchored on the surface of stably transfected HEK293 cells; also called hCD123 SP2 cells; pDisplay CD123SP2
# T2 sequence: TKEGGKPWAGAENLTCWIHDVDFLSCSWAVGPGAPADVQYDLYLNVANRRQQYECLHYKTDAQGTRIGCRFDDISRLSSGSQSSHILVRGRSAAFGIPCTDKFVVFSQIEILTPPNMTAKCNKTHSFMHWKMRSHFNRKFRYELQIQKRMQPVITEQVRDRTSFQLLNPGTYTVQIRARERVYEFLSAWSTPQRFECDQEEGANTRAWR
# T3: Recombinant human CD123 SP1 ECD-His tag protein (human, UniProt P26951 20-305)
# T3 construct: bought from R&D Systems (#301-R3/CF); biotinylated for some assays; also called rhCD123 SP1; huCD123 ECD SP1
# T3 sequence: T1 sequence
# T4: Recombinant human CD123 SP2 ECD protein (human, UniProt P26951 101-303)
# T4 construct: also called rhCD123 SP2; CD123 ECD SP2
# T4 sequence: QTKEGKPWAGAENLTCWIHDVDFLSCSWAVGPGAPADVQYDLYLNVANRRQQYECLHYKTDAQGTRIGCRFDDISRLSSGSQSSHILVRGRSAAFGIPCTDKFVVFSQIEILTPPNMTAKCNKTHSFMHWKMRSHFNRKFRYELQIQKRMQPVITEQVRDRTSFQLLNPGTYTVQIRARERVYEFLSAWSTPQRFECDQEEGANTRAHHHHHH
# B1: bispecific antibody Ab 3978 (bispecific antibody, human IgG4 S228P, kappa, lambda, F234A L235A)
# heavy 1: EVQLLESGGGLVQPGGSLRLSCAASGFTFNTYAMNWVRQAPGKGLEWVARIRSKYNNYATYYADSVKGRFTISRDNSKNTLYLQMNSLRAEDTAVYYCVKHGNFGNSYVSWFAYWGQGTLVTVSSASTKGPSVFPLAPCSRSTSESTAALGCLVKDYFPEPVTVSWNSGALTSGVHTFPAVLQSSGLYSLSSVVTVPSSSLGTKTYTCNVDHKPSNTKVDKRVESKYGPPCPPCPAPEAAGGPSVFLFPPKPKDTLMISRTPEVTCVVVDVSQEDPEVQFNWYVDGVEVHNAKTKPREEQFNSTYRVVSVLTVLHQDWLNGKEYKCKVSNKGLPSSIEKTISKAKGQPREPQVYTLPPSQEEMTKNQVSLTCLVKGFYPSDIAVEWESNGQPENNYKTTPPVLDSDGSFLLYSKLTVDKSRWQEGNVFSCSVMHEALHNHYTQKSLSLSLGK
# light 1: QAVVTQEPSLTVSPGGTVTLTCRSSTGAVTTSNYANWVQQKPGQAPRGLIGGTNKRAPGTPARFSGSLLGGKAALTLSGAQPEDEAEYYCALWYSNLWVFGGGTKLTVLGQPKAAPSVTLFPPSSEELQANKATLVCLISDFYPGAVTVAWKADSSPVKAGVETTTPSKQSNNKYAASSYLSLTPEQWKSHRSYSCQVTHEGSTVEKTVAPTECS
# heavy 2: not shown
# light 2: EIVLTQSPGTLSLSPGERATLSCRASQSVSSSYLAWYQQKPGQAPRLLIYGASSRATGIPDRFSGSGSGTDFTLTISRLEPEDFAVYYCQQDYGFPWTFGQGTKVEIKRTVAAPSVFIFPPSDEQLKSGTASVVCLLNNFYPREAKVQWKVDNALQSGNSQESVTEQDSKDSTYSLSSTLTLSKADYEKHKVYACEVTHQGLSSPVTKSFNRGEC
# notes: IgG4-PAA; CD3 arm of CD3B217 (first heavy and light chain), CD123 arm of I3RB217 (I3RB18)
# B2: bispecific antibody Ab 7955 (bispecific antibody, human IgG4 S228P, kappa, lambda, F234A L235A)
# heavy 1: B1 heavy 1
# light 1: B1 light 1 with A2T, A80V
# heavy 2: not shown
# light 2: B1 light 2
# notes: IgG4-PAA; CD3 arm of CD3B218, CD123 arm of I3RB217 (I3RB18)
# B3: CD3B143 (antibody, IgG1, V domains shown)
# VH: EVQLVESGGGLVQPGGSLRLSCAASGFTFNTYAMNWVRQAPGKGLEWVARIRSKYNNYATYYAASVKGRFTISRDDSKNSLYLQMNSLKTEDTAVYYCARHGNFGNSYVSWFAYWGQGTLVTVSS
# VL: QAVVTQEPSLTVSPGGTVTLTCRSSTGAVTTSNYANWVQQKPGQAPRGLIGGTNKRAPGTPARFSGSLLGGKAALTLSGAQPEDEAEYYCALWYSNLWVFGGGTKLTVL
# notes: IgG1 constant region with L234A, L235A, F405L; human lambda light chain constant region
# B4: CD3B152 (antibody, IgG1, V domains shown)
# VH: B3 VH with V5L, A64D, D76N, S80T, K89R, T90A, A99V, R100K
# VL: QSVLTQPPSVSAAPGQKVTISCRSSTGAVTTSNYANWVQQLPGTAPKGLIGGTNKRAPGIPDRFSGSKSGTSATLGITGLQTGDEADYYCALWYSNLWVFGGGTKLTVL
# notes: as for B3
# B5: CD3B155 (antibody, IgG1, V domains shown)
# VH: B3 VH with R19K, P41S, A49G, N57G, S80T, L81A, A99T
# VL: B3 VL
# notes: as for B3
# B6: CD3B158 (antibody, IgG1, V domains shown)
# VH: B3 VH with R19K, P41S, A49G, N57G, S80T, L81A, A99T
# VL: B3 VL with A2T, A80V
# notes: as for B3
# B7: CD3B151 (antibody, IgG1, V domains shown)
# VH: B3 VH with V5L, A64D, D76N, S80T, K89R, T90A, A99V, R100K
# VL: B3 VL
# notes: as for B3
# B8: CD3B156 (antibody, IgG1, V domains shown)
# VH: B3 VH with R19K, P41S, A49G, N57G, S80T, L81A, A99T
# VL: B4 VL
# notes: as for B3
# B9: CD3B154 (antibody, IgG1, V domains shown)
# VH: B3 VH with V5L, A64D, D76N, S80T, K89R, T90A, A99V, R100K
# VL: B3 VL with A2T, A80V
# notes: as for B3
# B10: CD3B124 (antibody, human IgG1, V domains shown)
# VH: EVKLLESGGGLVQPKGSLKLSCAASGFTFNTYAMNWVRQAPGKGLEWVARIRSKYNNYATYYADSVKDRFTISRDDSQSILYLQMNNLKTEDTAMYYCVRHGNFGNSYVSWFAYWGQGTLVTVSA
# VL: QAVVTQESALTTSPGETVTLTCRSSTGAVTTSNYANWVQEKPDHLFTGLIGGTNKRAPGVPARFSGSLIGDKAALTITGAQTEDEAIYFCALWYSNLWVFGGGTKLTVL
# notes: Chimeric: VH and VL of SP34 with murine framework and a human IgG1 Fc; also called in-house chimeric SP34-derived antibody
# What was measured:
# [1] = target: T1, human CD123 SP1 ECD displayed on …; experiment: MSD-CAT on pDisplay cells
# Protocol: (§1) The MSD-CAT was developed in-house as a label-free method to determine affinity using intact cells in a high throughput format. […] Cell lines used were human pDisplay CD123SP1 and pDisplay CD123SP2. […] These samples were prepared in DMEM Glutamax medium containing 0.05% Azide, 1% BSA, 3 mM EDTA. […] After equilibration the plate was centrifuged for 5 minutes ˜1000 rpm and free anti-CD3 detected on the supernatant. […] The assay buffer was removed without washing and 50 uL/well of 0.7 ug/mL of biotinylated antigen in assay buffer were added to MSD plates and incubated overnight (˜16 hours at 4° C.).
# [2] = target: T2, human CD123 SP2 ECD displayed on …; experiment: MSD-CAT on pDisplay cells
# Protocol: as §1
# [3] = target: T3, Recombinant human CD123 SP1 ECD-His tag …; experiment: SPR Biacore T200, captured antibody
# Protocol: (§2) Kinetic studies were performed at 25° C. using a Biacore T200 (Biacore, Inc., now part of GE Healthcare). […] The carboxymethyl groups of dextran were activated with N-Ethyl-N′-(3-Dimethylaminopropyl)carbodiimide (EDC) and N-hydroxysuccinimide (NHS). The anti-Fc antibody was coupled at pH 4.5 in 10 mM sodium acetate. Any remaining reactive sites on the surface were blocked by reaction with ethanolamine. […] 40-70 RU of antibody were captured. […] Association data was collected for 2 min followed by 10 min of dissociation. The surface was regenerated with 30 μL of 100 mM H3PO4 100 μL/min, followed by 50 mM NaOH. The samples for kinetic analysis were prepared in PBS-based buffer (D-PBS containing 3 mM EDTA and 0.005% surfactant P20). Data reported is the difference in SPR signal between the flow cell containing the captured antibody and a reference cell without captured antibody. Additional instrumental contributions to the signal were removed by subtraction of the data from the blank injection from the reference-subtracted signal. Data were analyzed by fitting association and dissociation phases at all concentrations (global fit) with a 1:1 binding model using the BIAevaluation software (BIAcore, Inc.).
# [4] = target: T4, Recombinant human CD123 SP2 ECD protein; experiment: SPR Biacore T200, captured antibody
# Protocol: as §2
# [5] = target: T5, cell-surface CD3 epsilon on primary cynomolgus T cells (cynomolgus monkey, UniProt Q95LI5 22-198); experiment: flow cytometry competition with labeled CD3B146 on T cells
# T5 construct: whole, on cells; also called cynomolgus CD3e; Cyno T-cells
# Source text: (§3) The format involved competition binding using a fixed concentration of labeled anti-CD3 mAb of known affinity and increasing concentrations of unlabeled test Abs (Ashkenazi A et al. PNAS: 88:10535, 1991.).
# [6] = target: T6, cell-surface CD3 epsilon on primary human T cells (human, UniProt P07766 23-207); experiment: as above
# T6 construct: whole, on cells; part of the CD3/TCR complex on the cells
# Source text: as §3
# [7] = target: T6, cell-surface CD3 epsilon on primary …; experiment: flow cytometry on primary human T cells, anti-human IgG Alexa Fluor 647; MFI
# Protocol: (§4) The resulting panel of anti-CD3 antibodies was tested for binding against cell-surface CD3ε on primary human T cells. To do this, binding of antibodies from expression supernatants was visualized using a polyclonal anti-human secondary antibody and analyzed by flow cytometry. Briefly, binding of anti-CD3 antibodies to cell-surface CD3ε was assessed by flow cytometry using primary Human T lymphocytes purified by negative selection (Biological Specialty, Colmar, USA). Expression supernatants or purified antibodies were normalized to 10 μg/ml in media or FACS buffer (BD BioSciences), respectively. 2×10⁵ cells were aliquoted into wells of a 96 well round-bottomed plate (CoStar) for labeling. Antibodies in expression supernatant were added to cells and incubated for 45 min at 4° C. Following centrifugation at 1300 rpm for 3 min and removal of supernatant, 50 μL of anti-human IgG (H+L) Alexa Fluor 647 secondary antibody (Life technologies Inc.) was incubated with the cells at a final concentration of 10 μg/mL for 30 min at 4° C. away from direct light. Following washing and resuspension in 30 μL FACs buffer (BD BioSciences). Sample collection was performed on an Intellicyt HTFC system using ForeCyt software. Viable single cells were gated prior to analysis of binding using the green or red fixable live/dead dyes (Life Technologies Inc.) and forward/side scatter area and height parameters, respectively. Graphs were generated in GraphPad Prism version 5 using mean fluorescence intensity values.
# [8] = target: T5, cell-surface CD3 epsilon on primary …; experiment: flow cytometry on primary cynomolgus CD4+ T cells, anti-human IgG Alexa Fluor 647; MFI
# Protocol: as §4
# Binding analysis of the anti-CD3 hits to primary cynomolgusCD4⁺ T cells was then tested in order to assess the retention of cross-reactivity. Purified CD4⁺ T cells from the peripheral blood of cynomolgus monkeys (Zen Bio, Triangle Research Park, USA were used). Assay protocols were similar to those described above.
# T6 sequence (P07766 23-207): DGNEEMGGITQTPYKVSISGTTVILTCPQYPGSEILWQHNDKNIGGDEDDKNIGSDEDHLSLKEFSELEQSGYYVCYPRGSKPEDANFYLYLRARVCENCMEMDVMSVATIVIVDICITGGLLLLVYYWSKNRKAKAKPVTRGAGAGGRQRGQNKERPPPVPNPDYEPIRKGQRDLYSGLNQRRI
# T5 sequence (Q95LI5 22-198): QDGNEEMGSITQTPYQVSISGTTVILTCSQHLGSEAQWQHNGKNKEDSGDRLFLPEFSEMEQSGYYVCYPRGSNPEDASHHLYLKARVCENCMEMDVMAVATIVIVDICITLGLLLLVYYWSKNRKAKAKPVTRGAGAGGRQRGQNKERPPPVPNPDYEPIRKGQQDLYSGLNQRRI
binder,measurement,setting,value
B1,Kd,[1],0.153 nM
same,Kd,[2],0.528 nM
same,Kd,[3],1.47 nM
same,koff,[3],0.00083 s⁻¹
same,kon,[3],564000 M⁻¹ s⁻¹
same,Kd,[4],0.356 nM
same,koff,[4],0.0011 s⁻¹
same,kon,[4],3.12e+06 M⁻¹ s⁻¹
same,Kd,[5],215 nM
same,Kd,[6],241 nM
B2,Kd,[1],0.136 nM
same,Kd,[2],0.436 nM
same,Kd,[3],1.49 nM
same,koff,[3],0.00084 s⁻¹
same,kon,[3],562000 M⁻¹ s⁻¹
same,Kd,[4],0.344 nM
same,koff,[4],0.0011 s⁻¹
same,kon,[4],3.33e+06 M⁻¹ s⁻¹
same,Kd,[5],169 nM
same,Kd,[6],210 nM
B3,binding result,[7],binds
same,binding result,[8],binds
B4,binding result,[7],no binding
same,binding result,[8],no binding (tested: not printed)
B5,binding result,[7],binds
same,binding result,[8],binds
B6,binding result,[7],binds
same,binding result,[8],binds
B7,binding result,[7],binds
same,binding result,[8],binds
B8,binding result,[7],binds
same,binding result,[8],binds
B9,binding result,[7],binds
same,binding result,[8],binds
B10,binding result,[8],binds
